Test results reported in PMC3828196 (PLoS ONE, 2013).
Where “and” joins values, the source holds several entries; their conditions need not be identical. Equal values may be shown once. Entries after “also recorded” stand apart in the source; their conditions may differ. Read-outs that look alike come from different tables or passages of the source.

Tests used:
[1] = molecular target: Klebsiella pneumoniae DsbA (K. pneumoniae); test: ITC; peptide (3 mM) titrated into 100 μM DsbA in the cell; 25 mM HEPES, 50 mM NaCl, pH 7.4, DMSO 0.8 %; 25 °C by the methods (20 °C by the footnote of Table 4); single-site binding model; apparent Kd; triplicate
KpDsbA = test: ITC binding of DsbB-derived peptides to KpDsbA; set-up: species or system K. pneumoniae
Description: Amidation and acetylation ensure that there are no charges on the peptide termini, as these are not present in the native DsbB loop sequence. Binding affinity was measured using a MicroCal™ Auto-iTC200 from (GE Healthcare, USA) at 25 °C. The sample cell was loaded with 200 μL of 100 μM KpDsbA or EcDsbA in 25 mM HEPES, 50 mM NaCl, pH 7.4, and DMSO 0.8 %. The peptide (3 mM) diluted in the same buffer was titrated with an initial injection of 0.5 μL into DsbA, followed by 19 consecutive injections (2.0 μL) offset by 180 s, while the solution was constantly stirred (1000 rpm). Data were fitted to a single-site binding model using MicroCal™ Origin 7.0 software (Origin 7 SR4 v7.0552). Experiments were conducted in triplicate and affinity and thermodynamic parameters are reported as means and standard deviations (Table 4).

Cys30 [2] = molecular target: Cys30 (UniProt position 49, FFSFYCPHCNT); settings: not stated; cited from earlier work
Cys30 [3] = molecular target: Cys30 (UniProt position 49, FFSFFCPHCYQ); settings: not stated; cited from earlier work
Cys30 [4] = molecular target: T1, Cys30 (UniProt position 49, FFSFYCPHCYQ); test: UV-vis; settings: 22 °C; 200 mM KCl plus buffer salts (total ionic strength not stated); 10 mM Tris, 10 mM sodium citrate, 10 mM K2HPO4, 10 mM KH2PO4, 200 mM KCl, 1 mM EDTA; Reduced KpDsbA (40 μM), with oxidised KpDsbA as reference
Cys30 [5] = molecular target: T1, Cys30; settings: not stated; cited from earlier work
Escherichia coli DsbA = molecular target: T2, Escherichia coli DsbA (E. coli, UniProt P0AEG4 20-208); test: ITC; peptide (3 mM) titrated into 100 μM DsbA in the cell; 25 mM HEPES, 50 mM NaCl, pH 7.4, DMSO 0.8 %; 25 °C by the methods (20 °C by the footnote of Table 4); single-site binding model; apparent Kd; triplicate; settings: both partners purified
T2 construct: also called EcDsbA; E. coli DsbA; source: purified as described for KpDsbA (BL21(DE3)pLys, Talon resin, TEV protease, Superdex75)
T2 sequence (looked up): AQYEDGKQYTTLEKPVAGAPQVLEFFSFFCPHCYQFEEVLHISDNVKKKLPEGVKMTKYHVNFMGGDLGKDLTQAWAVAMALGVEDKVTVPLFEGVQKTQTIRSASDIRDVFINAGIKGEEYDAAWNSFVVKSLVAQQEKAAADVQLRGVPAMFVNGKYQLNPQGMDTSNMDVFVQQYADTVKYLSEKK

insulin [6] = settings: cited from earlier work
[7] = Temperature-induced unfolding by far-UV CD; assay type: physicochemical
Description: Temperature-induced unfolding of native SeDsbA and KpDsbA was determined as described previously using a Jasco J-810 circular dichroism (CD) spectropolarimeter (Jasco, USA). The redox state of the protein was confirmed using Ellman’s reagent. The largest difference in molar ellipticity for oxidized or reduced enzymes was calculated from initial far-UV CD spectra (from 250 nm to 190 nm) recorded at 25 °C and 95 °C, respectively. The unfolding of oxidized and reduced protein (SeDsbAox = 220 nm, SeDsbAred = 220.5 nm and KpDsbAox = 211 nm, KpDsbAred = 209.5 nm) was monitored at a heat rate of 1 K / min from 298 K to 368 K in a 1 mm quartz cuvette. All measurements were carried out with 10 µM protein in 100 mM NaH2PO4 / Na2HPO4, 1 mM EDTA at pH 7.0. Samples for measurement of reduced enzyme contained 0.75 mM DTT. Raw data were analyzed in Prism and fitted to a two-state unfolding model as described previously. The standard deviation was measured from three replicates.

[8] = In vitro peptide dithiol oxidation (europium fluorescence); assay type: biochemical; settings: pH 5.5
Description: A peptide ([…]) with a 1,4,7,10-tetraazacyclododecane-1,4,7,10-tetraacetic acid (DOTA) group amide-coupled to the N-terminus, and a methylcoumarin amide-coupled to the ε-amino group of the C-terminal lysine, was purchased from AnaSpec (Fremont, CA). Lyophilized peptide was re-suspended in 100 mM imidazole, pH 6, at a concentration of 2 mM. Europium trifluoromethanesulfonate (Sigma Aldrich, Australia) solution (100 mM) was added to the peptide at a molar ratio of 2:1 and incubated for 5 min at room temperature, to allow europium chelation. The peptide solution was then immediately aliquoted, flash frozen in liquid nitrogen and stored at -80°C. An increase in fluorescence occurs upon oxidation of the peptide cysteines to form a disulfide. Thus, fluorescence can be used to monitor the capacity of DsbA enzymes to catalyse dithiol oxidation.
Assays were conducted using a Synergy H1 multimode plate reader (BioTek, USA) with the excitation wavelength set to 340 nm and emission to 615 nm. A 150 μs delay before reading and 100 μs reading time were used for time-resolved fluorescence. The assay was performed in a white 384-well plate (Perkin Elmer OptiPlate-384, Part #: 6007290). The buffer consisted of 50 mM MES, 50 mM NaCl and 2 mM EDTA at pH 5.5. The reaction consisted of a 50 μL solution in each well, containing 160 nM EcDsbA, KpDsbA or SeDsbA, 1.6 μM EcDsbB (crude membrane extracts, containing ubiquinone) and 8 μM peptide substrate added last to initiate the reaction. Samples containing buffer and DsbA or buffer and peptide were used as controls. Data were measured for three replicates and are presented as mean values, with the standard error of the mean indicated by error bars.

[9] = tested on: E. coli dsbA- null (JCB817); settings: SeDsbA, null mutant motility assay; ref [44]; cited from earlier work
[10] = SeDsbA, cited from earlier work
From the text: The past 5 years has seen the characterization of DsbA enzymes from many other bacteria including DsbAs with varying degrees of sequence identity to EcDsbA such as Neisseria meningitidis DsbA1 (NmDsbA1, 23% identity), Pseudomonas aerugin ... || EcDsbA and SeDsbA share 86 % sequence identity and both have been characterized previously. […] Both are similarly oxidizing enzymes: the redox potentials of EcDsbA and SeDsbA are -122 and -126 mV, respectively, whereas the range for all DsbAs is -80 to -163 mV (Table 1 ). In b ... || (+ 1 further places)

insulin [11] = test: Insulin disulfide reductase activity; assay type: biochemical; settings: 10 μM enzyme, 0.33 mM DTT, 2 mM EDTA, 100 mM phosphate pH 7.0, 0.131 mM insulin; OD650nm turbidity; three repeats
Description: Under mild reducing conditions, DsbA proteins can reduce the intermolecular disulfide bonds formed between insulin chains A and B [3]. The rate of disulfide bond reduction can be spectroscopically followed at OD650nm by an increase in turbidity resulting from production of the insoluble insulin chain B [20]. Samples were prepared in 1 cm cuvettes containing 10 μM of protein (KpDsbA, EcDsbA or EcDsbC), 0.33 mM DTT and 2 mM EDTA in 100 mM NaH2PO4 / Na2HPO4 titrated to pH 7.0. Catalysis was initiated by the addition of 0.131 mM insulin (I0516, Sigma-Aldrich, Australia) to the sample mixture. The assay was repeated three times and data were plotted showing standard deviations.

## EcDsbB P2 loop peptide PSPFATCD
[1]
  Kd: 17.9 µM
  dH: -9.5 kcal/mol
  stoichiometry N: 0.93

## CC(=O)N1CCC[C@H]1C(=O)N[C@@H](CO)C(=O)N1CCC[C@H]1C(=O)N[C@@H](Cc1ccccc1)C(=O)N[C@@H](C)C(=O)N[C@H](C(=O)N[C@@H](CS)C(=O)N[C@@H](CC(=O)O)C(N)=O)[C@@H](C)O
KpDsbA; ITC (Auto-iTC200), cell 100 μM KpDsbA, peptide 3 mM, 25 mM HEPES, 50 mM NaCl, pH 7.4, DMSO 0.8 %, 25 °C in method, 20 °C in table footnote, single-site model, apparent Kd, mean ± SD, three independent experiments, read-out: Kd
  Kd: 17.9 ± 1.5 µM
KpDsbA; ITC, range stated for KpDsbA and EcDsbA with PSPFATCD and PSPFQTCD together, read-out: Kd (range over both peptides and both DsbAs)
  Kd: 11 to 18 µM

## DsbA (VcDsbA, TcpG) (Vibrio cholerae)
Cys30 [2]
  pKa: 5.1

## KpDsbB P2 loop peptide PSPFQTCD
[1]
  Kd: 16.7 µM
  dH: -11.1 kcal/mol
  stoichiometry N: 0.97

## DsbA (EcDsbA) (Escherichia coli (K-12))
Cys30 [3]
  pKa: 3.3

## DsbA (thiol:disulfide interchange protein DsbA), KpDsbA (Klebsiella pneumoniae (strain 342))
Cys30 [4]
  pKa: 3.2

## DsbA (SeDsbA) (Salmonella enterica serovar Typhimurium (strain SL1344))
Cys30 [5]
  pKa: 3.3

B1: KpDsbB P2 loop peptide PSPFQTCD (peptide)
peptide: Ac-PSPFQTCD-NH2
notes: P2 loop of K. pneumoniae DsbB; source: synthetic peptide
Escherichia coli DsbA
  Kd: 10.9 µM

B2: SeDsbA: S. enterica Typhimurium DsbA (AAB81592) (protein)
chain: AQISDGKQYITLDKPVAGEPQVLEFFSFYCPHCYQFEEVLHVSDNVKKKLPEGTKMTKYHVEFLGPLGKELTQAWAVAMALGVEDKVTVPLFEAVQKTQTVQSAADIRKVFVDAGVKGEDYDAAWNSFVVKSLVAQQEKAAADLQLQGVPAMFVNGKYQINPQGMDTSSMDVFVQQYADTVKYLVDKK
modifications: left off: His6 (inferred: purified as described for KpDsbA), N-terminal, cleaved
Insulin [6]
  insulin reductase activity: weak disulfide reductants; also recorded: weak insulin reductase activity
[7]; 10 µM protein, 100 mM phosphate, 1 mM EDTA, pH 7.0, 0.75 mM DTT, 1 K/min 298-368 K, SeDsbA 220.5 nm, KpDsbA 209.5 nm, two-state fit, SD from three replicates
  Tm reduced: 351 K and 351.2 ± 0.2 K and 351.2 +/- 0.2 K
[7]; 10 µM protein, 100 mM phosphate, 1 mM EDTA, pH 7.0, 1 K/min 298-368 K, SeDsbA 220 nm, KpDsbA 211 nm, two-state fit, SD from three replicates
  Tm oxidized: 342.8 ± 0.4 K and 342.8 +/- 0.4 K and 343 K
[7]; SeDsbA, difference of melting temperatures
  stabilisation of reduced over oxidized form: 9 K
[8]; samples lacking EcDsbB, DsbA plus peptide, time-resolved fluorescence
  dithiol oxidation signal without EcDsbB: no increase in signal
[8]; with EcDsbB, 160 nM DsbA, 1.6 μM EcDsbB membrane extract, 8 μM peptide, 50 mM MES, 50 mM NaCl, 2 mM EDTA, time-resolved fluorescence 340/615 nm, three replicates
  rate of catalyzed disulfide bond formation: almost indistinguishable from that of EcDsbA
[9]
  complementation of EcDsbA, motility: can complement EcDsbA; also recorded: can fully restore the motility of dsbA ^- deficient strains
[10]; Table 1, ref [43] and [14]
  E°’ (redox potential): -126 mV
[10]; Table 1 and comparison, ref [43] and [14]
  pKa “Cys30”: 3.3
[10]; ref [43]
  pKa of nucleophilic cysteine: 3.3
  redox potential: -126 mV

B3: EcDsbC: E. coli disulfide isomerase DsbC (AAA83074) (protein, UniProt P0AEG6 21-236, looked up)
Thiol:disulfide interchange …: DDAAIQQTLAKMGIKSSDIQPAPVAGMKTVLTNSGVLYITDDGKHIIQGPMYDVSGTAPVNVTNKMLLKQLNALEKEMIVYKAPQEKHVITVFTDITCGYCHKLHEQMADYNALGITVRYLAFPRQGLDSDAEKEMKAIWCAKDKNKAFDDVMAGKSVAPASCDVDIADHYALGVQLGVSGTPAVVLSNGTLVPGYQPPKEMKEFLDEHQKMTSGK
Insulin [11]
  insulin disulfide reductase activity: highly active
